Assay results as given in patent US20130156764A1, “NEUTRALIZATION OF FLT3 LIGAND AS A LEUKEMIA THERAPY” (The Johns Hopkins University, priority 2010, published 2013).

Key:
[1] = system: FLT3 (wt, ITD, TKD) in FL−/− MEF cells; assay: FL stimulation, FLT3 phosphorylation in FL−/− MEF cells expressing wtFLT3, FLT3/ITD, FLT3/TKD; type: cell-based, mice
Procedure: Embryos were removed from female FL^−/− mice (purchased from Taconic, Hudson, N.Y.) on day 13 or 14 of pregnancy. Internal organs and heads were removed. The remainder of the embryos were washed, minced, digested with Trypsin/EDTA, and then resuspended in DMEM containing 10% FBS followed by centrifuging at 1000×g for 5 minutes. The cell pellet was resuspended in DMEM containing 10% FBS and cultured at 37° C. with 5% CO2. After 3 passages, the cells were transfected with CMV-SV40-large T antigen to immortalize FL^−/− MEF cells. The FL^−/− MEF cells represent bulk cells after transformation.
Retrovirus was obtained by harvesting supernatant 48 hours after transfection of 293T cells with pBabePuro constructs. […]
To eliminate the complicating factor of autocrine, paracrine, and intracrine FL expression on mutant FLT3 activation, FL^−/− MEF cells were established from FL^−/− mice. […] The addition of FL induced more than a 4-fold increase in FLT3 phosphorylation in FL^−/− MEF-FLT3, FL^−/− MEF-ITD, and FL^−/− MEF-TKD cells (quantitated by GS-800 Calibrated Densitometer (Bio-Rad) and Quantity One software (Bio-Rad)) (FIG. 10B, lanes 4, 6, and 8 versus lanes 3, 5, and 7). […]
The effect of endogenous FL expression on the activation of FLT3/ITD and FLT3/TKD mutant receptors were next examined. […] The expression of FL was assessed by the detection of the secreted form of FL in the cell culture supernatant. […]

[2] = system: primary AML blast samples harboring a FLT3/ITD mutation; assay: MTT assay in primary AML blast samples with FLT3/ITD mutation with FL; type: cell-based, human; settings: addition of exogenous FL, all 3 samples
From the text: Leukemia cell specimens were provided by the Sidney Kimmel Cancer Center at Johns Hopkins Tumor and Cell Procurement Bank. All patients gave informed consent according to the Declaration of Helsinki. The specimens were obtained by Ficoll purifying mononuclear cells from the peripheral blood patients with FLT3/ITD AML. The mononuclear cells were aliquoted and stored frozen in liquid nitrogen in bovine serum with 10% DMSO for repeated use. Prior to each use, aliquots of these blasts were thawed rapidly into warm culture medium, incubated for 12 hours, and then recentrifuged over Ficoll to eliminate cells dying from the freeze-thaw process. Using this method, blasts were obtained that maintained satisfactory viability (as determined by Trypan blue exclusion) and responsiveness to cytotoxic agents in culture over 72 hours.
Cytotoxicity was assessed using an MTT (Dimethyl-thiazol diphenyl tetrazolium bromide) assay. In selected cases, an Annexin-V binding apoptosis assay was also used to confirm that the cytotoxic effect observed (or lack thereof) was associated with an equivalent degree of apoptosis. MTT (Roche, Indianapolis, Ind.) and Annexin V (Pharmingen, San Diego, Calif.) assays were performed as described previously.
In three primary samples from AML patients with FLT3/ITD mutations (FIG. 8), a similar pattern of response to FL and FLT3 inhibition was observed.

[3] = system: FLT3/ITD and FLT3/TKD in BaF3 cells; assay: FL stimulation, FLT3 phosphorylation in BaF3/ITD and BaF3/TKD cells; type: cell-based
Procedure: (§1) TF1 and BaF3 cells were transfected with pCINeo constructs containing either FLT3/ITD or FLT3/TKD mutation by electroporation (Bio-Rad, Hercules, Calif.). Stable transfectants were then selected by limiting dilution in 96-well plates with 1 mg/mL G418 (Invitrogen, Carlsbad, Calif.).
(§2) BaF3 is another cell line lacking expression of endogenous FLT3. BaF3 cells transfected with mutant forms of FLT3 were starved in serum-free medium for 16 hours and washed with PBS before FL stimulation. […] Changes of other FLT3 downstream signals were not observed. An MTT survival assay was performed in BaF3/ITD and BaF3/TKD cells cultured in serum-free medium in the presence and absence of FL for 4 days. […] The effect was also confirmed by counting viable cell numbers by trypan blue exclusion (FIG. 13C, P<0.05). These findings indicate that FL stimulation prolongs the survival of cells expressing FLT3 mutants.

[4] = system: AKT and MAPK phosphorylation; assay: FL stimulation, downstream signaling immunoblot in BaF3/ITD and BaF3/TKD cells; type: cell-based
Procedure: as §1, §2

[5] = system: MV411 cells; assay: Survival (MTT) of MV411 cells with FL; type: cell-based, human; settings: MV411, serum-free, 4 days
Procedure: 2×10^4 cells in 100 μl serum-free medium were plated into triplicate wells of 96-well plates. Survival was assessed by MTT assay (Roche, Indianapolis, Ind.) and viable cell number counting by trypan blue (GIBCO, Rockville, Md.) exclusion according to the manufacturer's instructions.
The MV411 cell line is a human leukemia-derived cell line expressing a FLT3/ITD mutation and has lost the wild-type allele. […] MV411 cells express endogenous FL that might diminish the degree of the effect of exogenous FL on FLT3/ITD mutant receptor. To evaluate the effect of FL on the survival of MV411 cells, MV411 cells were cultured in serum-free medium in the presence and absence of FL for 4 days.

B1: FL: Recombinant human FL (fms-related tyrosine kinase ligand) purchased from PeproTech; SEQ ID NO: 1 (protein, listed as Homo sapiens)
chain: MTVLAPAWSPTTYLLLLLLLSSGLSGTQDCSFQHSPISSDFAVKIRELSDYLLQDYPVTVASNLQDEELCGGLWRLVLAQRWMERLKTVAGSKMQGLLERVNTEIHFVTKCAFQPPPSCLRFVQTNISRLLQETSEQLVALKPWITRQNFSRCLELQCQPDSSTLPPPWSPRPLEATAPTAPQPPLLLLLLLPVGLLLLAAAWCLHWQRTRRRTPRPGEQVPPVPSPQDLLLVEH
- increase in FLT3 phosphorylation ([1]; FL−/− MEF-FLT3, MEF-ITD and MEF-TKD cells, serum-free, FL 100 ng/mL 15 minutes): > 4 fold
- FLT3 phosphorylation in cells expressing endogenous FL ([1]; exogenous FL 100 ng/mL, MEF-FLT3, MEF-ITD, MEF-TKD cells stably expressing FL): did not further augment
- metabolic activity of the sample in culture medium [2]: increased
- FLT3 phosphorylation [3]: increased FLT3 phosphorylation
- increase of phosphorylation of AKT ([4]; BaF3/ITD): 1.3 fold
- MAPK phosphorylation ([4]; BaF3/ITD and BaF3/TKD): increase of MAPK phosphorylation
- increase of phosphorylation of AKT ([4]; BaF3/TKD): 2.2 fold
- survival [5]: prolonged survival
